Experimental data taken from article PMC10981688, “PCSK9 stimulates Syk, PKCδ, and NF-κB, leading to atherosclerosis progression independently of LDL receptor” (Nature Communications, 2024).

Experiments:
Settings in all cases: both partners purified
[1] = target: T1, recombinant human PCSK9 with 6x His tag (proprotein convertase subtilisin/kexin type-9) (human, UniProt Q8NBP7 31-692); assay: BLI; BLItz system; PCSK9-His (hPCSK9, 500 nM, 120 s loading) immobilised on an anti-Penta-HIS sensor; association 120 s, dissociation 120 s; sensorgrams fit globally to a 1:1 binding model
T1 construct: proprotein convertase subtilisin/kexin type-9 (PCSK9), human, recombinant; written here as one chain; also called rhPCSK9-His; PCSK9-His

[2] = target: T2, recombinant human PKCδ (protein kinase C delta) (human, UniProt Q05655 1-676); assay: BLI; BLItz system; CAP1-mFc immobilised on an anti-mouse IgG Fc (AMC) sensor; Syk or PKCδ in the association step (120 s), dissociation 120 s; global 1:1 binding model
T2 construct: protein kinase C delta (PKCδ), human, recombinant; also called rhPKCδ; source: bought: Abcam (ab60844)
T2 sequence (Q05655 whole entry, stated change not applied): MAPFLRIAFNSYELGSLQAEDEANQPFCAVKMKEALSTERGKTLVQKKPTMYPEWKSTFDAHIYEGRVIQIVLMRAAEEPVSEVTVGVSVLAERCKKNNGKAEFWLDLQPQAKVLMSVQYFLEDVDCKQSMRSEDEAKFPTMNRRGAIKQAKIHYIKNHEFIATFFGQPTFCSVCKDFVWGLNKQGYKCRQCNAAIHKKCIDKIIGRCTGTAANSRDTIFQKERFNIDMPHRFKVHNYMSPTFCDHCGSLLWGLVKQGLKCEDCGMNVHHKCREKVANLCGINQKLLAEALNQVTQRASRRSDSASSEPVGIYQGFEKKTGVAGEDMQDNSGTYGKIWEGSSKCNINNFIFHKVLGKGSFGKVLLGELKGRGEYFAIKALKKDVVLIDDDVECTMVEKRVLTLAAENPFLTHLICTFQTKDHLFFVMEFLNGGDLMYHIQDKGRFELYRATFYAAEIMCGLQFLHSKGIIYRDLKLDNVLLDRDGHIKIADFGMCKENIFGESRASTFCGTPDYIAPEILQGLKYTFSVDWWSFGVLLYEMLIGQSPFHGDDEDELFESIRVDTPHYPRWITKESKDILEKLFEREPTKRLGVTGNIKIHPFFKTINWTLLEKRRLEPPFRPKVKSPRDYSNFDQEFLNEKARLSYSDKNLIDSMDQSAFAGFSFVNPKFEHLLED

[3] = target: T3, recombinant human Syk (spleen tyrosine kinase) (human, UniProt P43405 1-635); assay: as above
T3 construct: spleen tyrosine kinase (Syk), human, recombinant; also called rhSyk; source: bought: Abcam (ab60886)

Binder	Kd [1] [nM]	Kd [2] [nM]	Kd [3] [nM]
recombinant human CAP1 (adenylyl cyclase-associated protein 1) (natural protein, UniProt Q01518 1-475, looked up, adenylyl cyclase-associated protein 1 (CAP1), human, recombinant; also called rhCAP1; hCAP1; source: bought: Abnova (H00010487-P01)) MADMQNLVERLERAVGRLEAVSHTSDMHRGYADSPSKAGAAPYVQAFDSLLAGPVAEYLKISKEIGGDVQKHAEMVHTGLKLERALLVTASQCQQPAENKLSDLLAPISEQIKEVITFREKNRGSKLFNHLSAVSESIQALGWVAMAPKPGPYVKEMNDAAMFYTNRVLKEYKDVDKKHVDWVKAYLSIWTELQAYIKEFHTTGLAWSKTGPVAKELSGLPSGPSAGSCPPPPPPCPPPPPVSTISCSYESASRSSLFAQINQGESITHALKHVSDDMKTHKNPALKAQSGPVRSGPKPFSAPKPQTSPSPKRATKKEPAVLELEGKKWRVENQENVSNLVIEDTELKQVAYIYKCVNTTLQIKGKINSITVDNCKKLGLVFDDVVGIVEIINSKDVKVQVMGKVPTISINKTDGCHAYLSKNSLDCEIVSAKSSEMNVLIPTEGGDFNEFPVPEQFKTLWNGQKLVTTVTEIAG	32		
human CAP1 whose carboxyl-terminal end was conjugated with the Fc region of mouse immunoglobulin (Fc fusion, UniProt Q01518 1-475, looked up, adenylyl cyclase-associated protein 1 (CAP1), human; also called CAP1-mFc; hCAP1-mFc; source: Expi293F, transfected, purified to homogeneity; not shown: Fc (mouse immunoglobulin), C-terminal, kept) MADMQNLVERLERAVGRLEAVSHTSDMHRGYADSPSKAGAAPYVQAFDSLLAGPVAEYLKISKEIGGDVQKHAEMVHTGLKLERALLVTASQCQQPAENKLSDLLAPISEQIKEVITFREKNRGSKLFNHLSAVSESIQALGWVAMAPKPGPYVKEMNDAAMFYTNRVLKEYKDVDKKHVDWVKAYLSIWTELQAYIKEFHTTGLAWSKTGPVAKELSGLPSGPSAGSCPPPPPPCPPPPPVSTISCSYESASRSSLFAQINQGESITHALKHVSDDMKTHKNPALKAQSGPVRSGPKPFSAPKPQTSPSPKRATKKEPAVLELEGKKWRVENQENVSNLVIEDTELKQVAYIYKCVNTTLQIKGKINSITVDNCKKLGLVFDDVVGIVEIINSKDVKVQVMGKVPTISINKTDGCHAYLSKNSLDCEIVSAKSSEMNVLIPTEGGDFNEFPVPEQFKTLWNGQKLVTTVTEIAG		322	5.96
